For the experiment, the target named is endothelin-converting enzyme 1 (Ece1), monomer (mouse (endogenous in NMuMG and C2C12)). In words: cross-linking.

endothelin-converting enzyme 1 (Ece1), monomer, sequence (Q4PZA2 whole entry): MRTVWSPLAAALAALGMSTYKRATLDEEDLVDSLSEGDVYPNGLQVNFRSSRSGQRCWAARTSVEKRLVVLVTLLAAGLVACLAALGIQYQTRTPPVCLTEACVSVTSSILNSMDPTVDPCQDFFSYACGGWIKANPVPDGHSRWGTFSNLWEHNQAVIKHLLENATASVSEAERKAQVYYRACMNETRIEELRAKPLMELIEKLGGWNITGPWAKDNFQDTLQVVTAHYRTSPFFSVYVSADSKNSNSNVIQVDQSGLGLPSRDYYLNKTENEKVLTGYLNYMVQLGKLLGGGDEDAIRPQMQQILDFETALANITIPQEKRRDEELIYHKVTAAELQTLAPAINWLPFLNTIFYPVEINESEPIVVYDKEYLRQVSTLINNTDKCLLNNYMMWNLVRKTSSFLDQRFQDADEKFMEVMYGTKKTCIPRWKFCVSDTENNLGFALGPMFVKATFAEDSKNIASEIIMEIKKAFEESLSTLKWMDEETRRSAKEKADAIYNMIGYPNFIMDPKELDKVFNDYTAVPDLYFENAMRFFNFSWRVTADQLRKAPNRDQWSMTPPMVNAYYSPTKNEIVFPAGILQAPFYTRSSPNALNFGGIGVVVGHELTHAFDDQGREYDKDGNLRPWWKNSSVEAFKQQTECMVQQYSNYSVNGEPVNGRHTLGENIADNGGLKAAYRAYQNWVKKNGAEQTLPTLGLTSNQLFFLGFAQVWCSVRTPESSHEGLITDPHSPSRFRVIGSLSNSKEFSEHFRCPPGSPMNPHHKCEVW

In turn, “endothelin-converting enzyme 1 (Ece1), monomer” yielded a stoichiometry N of 2.

Values taken from paper PMC5988664.
